Test: yeast display, Sf9 membrane polyspecificity reagent, FACS + sequencing; frameworks hold sequencing errors
Summary of the method: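 After 36–48 hours of galactose induction, yeast (Saccharomyces cerevisiae BJ5465) displaying a synthetic nanobody library were stained at 4 °C for 1 hour with 10% biotinylated, detergent-solubilized Sf9 membrane reagent. Streptavidin microbeads enriched the stained cells before FACS sorting into low and high (top ~1%) gates on anti-HA and streptavidin fluorescence. Each clone's polyreactivity label reflects its gate of origin.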

Sequence: QVQLVESGGGLVQAGGSLRLSCAASGSIFYSYAMGWYRQAPGKERELVAAISWDASTYYADSVKGRFTISRDNAKNTVDLQMNSLKPEDTAVYYCNKRWFAPPPYSYVRSYDYWGQGTQVTVSS
- polyreactivity (PSR sort gate): low polyreactivity

Sequence: QVQLVESGGGLVQAGGSLRLSCAASGSIFYSYMGWYRQAPGKERECVAAINQRGSSTYYADSVKGRFTISRDNAKNTVYLQMNSLKPEDTAVYDCAAVFFGVYTSRRYYWGQGTQVTVSS
- polyreactivity (PSR sort gate): high polyreactivity

Sequence: QVQLVESGGGLVQAGGSLRLSCAASGSIFYTNAMGWYRQAPGKERELVAAIRWSGGRTYYADSVKGRFTISRDNAKNTVYLQMNSLKPEDTAVYYCNVVVRYPSAYDYWGQGTQVTVSS
- polyreactivity (PSR sort gate): high polyreactivity

Sequence: QVQLVESGGGLVQAGGSLRLSCAASGSIFYTNAMGWYRQAPGKERELVAAITNGSSTNYADSVKGRFTISRDNAKNTVYLQMNSLNPEDTAVYYCAKYFGNYSIYDYWGQGTQVTVSS
- polyreactivity (PSR sort gate): low polyreactivity

Sequence: QVQLVESGGGLVQAGGSLRLSCAASGSIFYTNAMGWYRQAPGKERELVAAITRTGSTNYADSVKGRFTISRDNAKNTVYLQMNSLKPEDTAVYYCNARRYYRYGYWGQGTQVTVSS
- polyreactivity (PSR sort gate): high polyreactivity

Sequence: QVQLVESGGGLVQAGGSLRLSCAASGSIFYTNAMGWYRQAPGKERELVAAITWSGGRTYYADSVKGRFTISRDIAKNTVYLQMNSLKPEDTAVYYCNREGWHYGPYGYWGQGTQVTVSS
- polyreactivity (PSR sort gate): low polyreactivity

Sequence: QVQLVESGGGLVQAGGSLRLSCAASGSIFYTNAMGWYRQAPGKERELVATITSSTGSTNYADSVKGRFTISRDNAKNTVYLQMNSLKPEDTAVYYCAKRDCYWVYYQMDYWGQGTQVTVSS
- polyreactivity (PSR sort gate): low polyreactivity

Sequence: QVQLVESGGGLVQAGGSLRLSCAASGSIFYTNVMGWYRQAPGKERELVARIDSGGSTNYADSVKGRFTISRDNAKNTVFLQMNSLNPEDTAVYYCAADWYIYDYWGQGTQVTVSS
- polyreactivity (PSR sort gate): low polyreactivity

Sequence: QVQLVESGGGLVQAGGSLRLSCAASGSIFYTNVMGWYRQAPGKERELVAVISSGGSTYYADSVKGRFTISRDNAKNTVYFQMNSLKPEDTAGYYCNADSVSSPPYYDYWGQGTQVTVSS
- polyreactivity (PSR sort gate): high polyreactivity

Sequence: QVQLVESGGGLVQAGGSLRLSCAASGSIFYTYAMGWYRQAPGKERELVAAINWSGGRTYYADSVKGRFTISRDNAKNTVYLQMNSLTPEDTAVYSCAARRGRSWGGFDYWGQGTQVTVSS
- polyreactivity (PSR sort gate): low polyreactivity

Sequence: QVQLVESGGGLVQAGGSLRLSCAASGSIFYTYTMGWYRQAPGKERELVAAISRGGRTYYADSVKGRFTISRDNAKNTVYLQMNSLKPEDTAVYYCAAYGYGSWGQGTQVTVSS
- polyreactivity (PSR sort gate): high polyreactivity

Sequence: QVQLVESGGGLVQAGGSLRLSCAASGSIFYVNAMGWYRQAPGKERELVAAISYRGGSTYYADSVKGRFTISRDNAKNTVYLQMNSLKPEDTAVYYCAARGYYRPSQTTGRIKYDYWGQGTQVTVSS
- polyreactivity (PSR sort gate): high polyreactivity

Sequence: QVQLVESGGGLVQAGGSLRLSCAASGSIFYVNGMGWSRQAPGKERELVARITLSGTSTYYADSVKGRFTISRDNAKNTVYLQMNSLKPEDTAVYYCAAPYFTYGQDDDDYWGQGTQVTVSS
- polyreactivity (PSR sort gate): low polyreactivity

Sequence: QVQLVESGGGLVQAGGSLRLSCAASGSIFYVYAMGRYRQAPGKERELVASINKSGGSTYYADSVKGRFTISRDNAKNTVYLQMNSLKPEDTAVYYCAARTGWPRVGFQYPAHVGFDYWGQGTQVTVSS
- polyreactivity (PSR sort gate): low polyreactivity

Sequence: QVQLVESGGGLVQAGGSLRLSCAASGSIFYVYAMGWYRQAPGKERELVAAISSSAGSTYYADSVKGRFTISRDNAKNTVYLQMNSLKPEDTAVYYCAAKVRYSLRKYYYWGQGTQVTVSS
- polyreactivity (PSR sort gate): high polyreactivity

Sequence: QVQLVESGGGLVQAGGSLRLSCAASGSIFYVYAMGWYRQAPGKERELVAAITARVTSTYYADSVKGRFTISRDNAKNTVYLQMNRLKPEDTADYYCAARTSYKTGYRKYDYWGQGTQVTVSS
- polyreactivity (PSR sort gate): low polyreactivity

Sequence: QVQLVESGGGLVQAGGSLRLSCAASGSIFYVYAMGWYRQAPGKERELVAAITNYADSVKGRFTISRDNAKNTVYLQMNSLKPEDTAVYYCAADWWRVEMDYWGQGTEVTVSS
- polyreactivity (PSR sort gate): low polyreactivity

Sequence: QVQLVESGGGLVQAGGSLRLSCAASGSIFYVYAMGWYRQAPGKERELVAAITSGGSTNYADSVKGRFTISRDNAKNTVYLQMNSLKPEDTAVYYCAAAWENIWVWQEYIEYDYWGQGTQVTVSS
- polyreactivity (PSR sort gate): low polyreactivity

Sequence: QVQLVESGGGLVQAGGSLRLSCAASGSIFYVYAMGWYSQARGKEMELVAAISSSAGSTYYADSVKVRFTISRDNAKTTVYLQINSLIPEDTAVDYCAAKVRYSLRKYYYWGQGTQVTVSS
- polyreactivity (PSR sort gate): high polyreactivity

Sequence: QVQLVESGGGLVQAGGSLRLSCAASGSIFYVYTMGWYRQAPGKERELVAAISSSAGSTYYADSVKGRFTISRDNAKNTVYLQMNSLKQEDTAVYYCAAKVRYSLRKYYYWGQGTQVTVSS
- polyreactivity (PSR sort gate): high polyreactivity

Sequence: QVQLVESGGGLVQAGGSLRLSCAASGSIFYWNAMGWYRQAPGKERELVAAIDYSDGSTYYADSVKGRFTISRDNAKNTVYLQMNSLKPEDTAVYYCAAEWYYDLYDYWGQGTQVTVSS
- polyreactivity (PSR sort gate): high polyreactivity

Sequence: QVQLVESGGGLVQAGGSLRLSCAASGSIFYWYAIGWYRQAPGKETELVAAISSGGSTNYADSVKGRFTISRDNAKNTVYLQMNSLKPEDTAVYYCNADIRSFYWEYYTGLDSWGQGTQVTVSS
- polyreactivity (PSR sort gate): low polyreactivity

Sequence: QVQLVESGGGLVQAGGSLRLSCAASGSIFYWYALGWYRQAPGKERELVADITTSDGRTYYADSVKGRFTISRDNAKNTVNLQMNSLKPEDTAVYYCAADPFSGYGFQYYRGLYYWGQGTQVSVSS
- polyreactivity (PSR sort gate): low polyreactivity

Sequence: QVQLVESGGGLVQAGGSLRLSCAASGSIFYWYAMGWYRQAPGKERELVAAISSGGSTNYADSVKGRFTISRDNAKNTVYLQMNSLKPEDTAVYYCNADIRSFYWEYYTGLDSWGQVTQVTVSS
- polyreactivity (PSR sort gate): low polyreactivity

Sequence: QVQLVESGGGLVQAGGSLRLSCAASGSIFYWYAMGWYRQAPGKERELVAAITRSAGTTYYADSVKGRITISRDNAKNTVYLQMNSLKPEDTAVYYCAATYPRPYGSRPRYEYWGQGTQVTVSS
- polyreactivity (PSR sort gate): high polyreactivity

Sequence: QVQLVESGGGLVQAGGSLRLSCAASGSIFYYNAMGWSRQAPGKERELVAGIRRSGDSTYYADSVKGRFTISRDNAKNTVYLQMNSLKPEDTAVYYCAAYLYLEYYYWGQGTQVTVSS
- polyreactivity (PSR sort gate): low polyreactivity

Sequence: QVQLVESGGGLVQAGGSLRLSCAASGSIFYYNAMGWYRQAPGKERELVAAISSSGGSTYYADSVKGRFTISRDNAKNTVYLQMNSLKPEDTAVYYCAAKLRHWAHHTKYDYWGQGTQVSVSS
- polyreactivity (PSR sort gate): low polyreactivity

Sequence: QVQLVESGGGLVQAGGSLRLSCAASGSIFYYNAMGWYRQAPGKERELVAAMSWSGGSTYDADSVKGRFTISRDNAKHTVYLQMNSLKPEDTAVYYCRYYRRDEMDYWGQGTQVTVSS
- polyreactivity (PSR sort gate): high polyreactivity

Sequence: QVQLVESGGGLVQAGGSLRLSCAASGSIFYYNAMGWYRQAPGKERELVATITQSGGGRTYYADSVKGRFTISRDNAKNTVYLQMNSLKPEDTAVYYCAAKPDKYKSYRYGYWGQGTQVTVSS
- polyreactivity (PSR sort gate): low polyreactivity

Sequence: QVQLVESGGGLVQAGGSLRLSCAASGSIFYYNAMGWYRQAPGQERELVAGINYSGGSTYYADSVKGRFTISRDNAKNTVYLQMNSLIPEDTADYYCAARPRYLNARKYYYWGLGTQVTVSS
- polyreactivity (PSR sort gate): high polyreactivity

Sequence: QVQLVESGGGLVQAGGSLRLSCAASGSIFYYNTMGWYRQAPGKEREFVADISVIGGSTYYADSVKGRFTISRDNAKNTVYLQMNSLKPEDTAVYYCAARRYLRPHGLYGYWGQGSQVTVSS
- polyreactivity (PSR sort gate): low polyreactivity

Sequence: QVQLVESGGGLVQAGGSLRLSCAASGSIFYYNVMGWYRQAPGKETELVAAISQSGVRTYYADSVKGRFTISRDNAKNTVYLQMNSLKPEDTAVYYCAAKARRLYASSYDYWGQGTQVTVSS
- polyreactivity (PSR sort gate): high polyreactivity

Sequence: QVQLVESGGGLVQAGGSLRLSCAASGSIFYYYAAMGWYRQAPGKERELVAAIDSSDGTTYYADSVKGRFTISRDNAKNTVYLQMNSLKPEDTAVYYCAAETVQEFEYWGQGTQVTVSS
- polyreactivity (PSR sort gate): high polyreactivity

Sequence: QVQLVESGGGLVQAGGSLRLSCAASGSIFYYYAMGWSRQAPGKERELVAAITWRGGRTYYADSVKGRFTISRDNAKNTVYLQMNSLKPEDTAVYYCAADSRYYQYIYIHGYDYWGQGTQVTVSS
- polyreactivity (PSR sort gate): high polyreactivity

Sequence: QVQLVESGGGLVQAGGSLRLSCAASGSIFYYYAMGWYRQAPGKEMELVAAIDSGGSTYYAHSVKGRFTISRDNAKNTVYLQMNSLKPEDTAVYYCAADTYWFVYYGYDYWGQGTQVTVSS
- polyreactivity (PSR sort gate): low polyreactivity

Sequence: QVQLVESGGGLVQAGGSLRLSCAASGSIFYYYAMGWYRQAPGKEREFVAAIRESGGSTYYADSVKGRFTISRDNAKNTVYLQMNSLKPEDTAVYYCAVRRPRRNYNYPYDYCGQGTQVTVSS
- polyreactivity (PSR sort gate): low polyreactivity

Sequence: QVQLVESGGGLVQAGGSLRLSCAASGSIFYYYAMGWYRQAPGKERELVAAISDDAITYYADSVKGRFTISRDNAKNTVYLQMNSLKPEDTAVYYCAAELYYPVGFDYWGQGTQVTVSS
- polyreactivity (PSR sort gate): high polyreactivity

Sequence: QVQLVESGGGLVQAGGSLRLSCAASGSIFYYYAMGWYRQAPGKERELVAAISSGGSTNYADSVKGRFTISRDYAKNTVYLQMNSLKPEDTAVYYCAADYRAQYVVWYTYDYWGQGTQVTVSS
- polyreactivity (PSR sort gate): low polyreactivity

Sequence: QVQLVESGGGLVQAGGSLRLSCAASGSIFYYYAMGWYRQAPGKERELVAAITYDAGSTYYADSVKGRFTISRDNAKNTVYLQMNSLKPEDTAVYYCATDGIYHWGVYTPYDYWGQGTQVTVSS
- polyreactivity (PSR sort gate): low polyreactivity

Sequence: QVQLVESGGGLVQAGGSLRLSCAASGSIFYYYAMGWYRQAPGKERELVASITSGGRTYYADSVKGRFTISRDNAKNTVYFQMNSLKPEDTAVYYCAAVYGGLTLTRNYYWGQGTQVTVSS
- polyreactivity (PSR sort gate): high polyreactivity

Sequence: QVQLVESGGGLVQAGGSLRLSCAASGSIFYYYGMGWYRQAPGKERELVAGISSRGGRTYYADSVKGRFTISRDNAKNTVYLQMNSLKPEDTAVYYCAADRYYYAYRYYPSGYWGQGTQVTVSS
- polyreactivity (PSR sort gate): low polyreactivity

Sequence: QVQLVESGGGLVQAGGSLRLSCAASGSIFYYYTMGWDRQAPGKERELVADITYRGGSTYYADSVKGRFTISRDNAKNTVYLLMNSLKPEDTAVNFCAAASLVRGGHFDYWGQGTQVTVSS
- polyreactivity (PSR sort gate): high polyreactivity

Sequence: QVQLVESGGGLVQAGGSLRLSCAASGSIFYYYVMGWYRQAPGKERELVAAIRSSGTSTYYADSVKGRFTISRDNAKNTVYLQMNSLKPEDTAVYYCNRARSSSRYDYWGQGTQVTVSS
- polyreactivity (PSR sort gate): low polyreactivity

Reference: the nanobody polyreactivity screen of Harvey et al. (2022)
